Two substances from PMC6456427 can be followed below.

Like-named read-outs stand apart in the source and are kept apart here.

Assay in all cases: SEC
Experiment [1] addresses Actinobacillus ureae class Id ribonucleotide reductase α subunit (Actinobacillus ureae).
For experiment [2] the target is unchanged. The source holds these as a separate data set.
The target of experiment [3] is Flavobacterium johnsoniae class Id ribonucleotide reductase α subunit (Flavobacterium johnsoniae).

Take “Actinobacillus ureae class Id ribonucleotide reductase α subunit (enzyme)”: the stoichiometry N in experiment [1] and in experiment [2] was 2 each time.

Take “Flavobacterium johnsoniae class Id ribonucleotide reductase α subunit (enzyme)”: the stoichiometry N in experiment [3] stood at 2.
